US20240261333A1, “NOVEL TARGETS FOR ENHANCING ANTI-TUMOR IMMUNITY” (THE BROAD INSTITUTE, INC., priority 2021, published 2024)

Experiments:
RPS17 = RPS17 (UniProt P08708); assay: co-IP with mouse IgG control, mass spectrometry; lysate of N-FLAG B3GNT2 cells
AHNAK = AHNAK (UniProt Q09666); assay: as above
RPS15A = RPS15A (UniProt P62244); assay: as above
RPL11 = RPL11 (UniProt P62913); assay: as above
UBA52 = UBA52 (UniProt P62987); assay: as above
HNRNPA1 = HNRNPA1 (UniProt P09651); assay: as above
HNRNPA1, sequence (P09651 2-372 limits assumed): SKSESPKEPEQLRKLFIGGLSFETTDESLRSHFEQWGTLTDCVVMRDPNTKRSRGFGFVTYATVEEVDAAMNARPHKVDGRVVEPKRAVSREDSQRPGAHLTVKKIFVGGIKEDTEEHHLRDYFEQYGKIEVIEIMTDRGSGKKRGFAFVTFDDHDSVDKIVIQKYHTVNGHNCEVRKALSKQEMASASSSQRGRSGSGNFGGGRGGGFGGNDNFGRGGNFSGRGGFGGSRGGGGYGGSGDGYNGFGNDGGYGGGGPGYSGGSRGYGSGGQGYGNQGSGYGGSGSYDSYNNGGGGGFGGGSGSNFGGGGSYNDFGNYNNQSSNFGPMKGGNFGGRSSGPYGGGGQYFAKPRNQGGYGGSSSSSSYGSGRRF

RPS11 = RPS11 (UniProt P62280); assay: as above
LYZ = LYZ (UniProt P61626); assay: as above
LYZ, sequence (P61626 19-148 limits assumed): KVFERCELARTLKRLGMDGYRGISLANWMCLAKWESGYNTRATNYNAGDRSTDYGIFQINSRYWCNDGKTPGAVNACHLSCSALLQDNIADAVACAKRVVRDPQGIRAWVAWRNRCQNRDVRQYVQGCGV

ATXN2L = ATXN2L (UniProt Q8WWM7); assay: as above
TPI1 = TPI1 (UniProt P60174); assay: as above
TPI1, sequence (P60174 2-249 limits assumed): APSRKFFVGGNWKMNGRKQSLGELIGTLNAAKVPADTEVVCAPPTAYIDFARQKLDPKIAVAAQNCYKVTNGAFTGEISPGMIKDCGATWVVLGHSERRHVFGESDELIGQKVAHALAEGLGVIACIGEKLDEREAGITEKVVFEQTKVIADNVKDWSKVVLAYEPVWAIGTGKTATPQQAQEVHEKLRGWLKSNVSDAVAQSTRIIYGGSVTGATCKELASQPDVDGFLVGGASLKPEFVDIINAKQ

YWHAZ = YWHAZ (UniProt P63104); assay: as above
YWHAZ, sequence (P63104 whole entry): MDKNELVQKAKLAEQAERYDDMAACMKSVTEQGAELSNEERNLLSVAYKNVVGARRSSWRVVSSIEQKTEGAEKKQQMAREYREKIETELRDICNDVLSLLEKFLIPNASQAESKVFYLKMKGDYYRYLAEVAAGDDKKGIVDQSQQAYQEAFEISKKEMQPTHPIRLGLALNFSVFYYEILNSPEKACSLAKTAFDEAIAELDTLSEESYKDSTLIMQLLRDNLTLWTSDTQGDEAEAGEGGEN

FABP5 = FABP5 (UniProt Q01469); assay: as above
FABP5, sequence (Q01469 2-135 limits assumed): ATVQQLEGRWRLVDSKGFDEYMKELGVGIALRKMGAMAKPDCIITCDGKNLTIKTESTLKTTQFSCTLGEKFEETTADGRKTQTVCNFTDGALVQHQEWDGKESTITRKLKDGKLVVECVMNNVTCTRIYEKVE

ACTR3 = ACTR3 (UniProt P61158); assay: as above
SPRR2E = SPRR2E (UniProt P22531); assay: as above
SPRR2E, sequence (P22531 whole entry): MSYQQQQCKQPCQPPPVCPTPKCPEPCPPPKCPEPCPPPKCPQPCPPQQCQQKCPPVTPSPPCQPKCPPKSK

RPS28 (human) = RPS28 (human) (UniProt P62857); assay: co-IP, anti-FLAG, lysate of cells with C-FLAG B3GNT2; mass spectrometry
HADHB (human) = HADHB (human) (UniProt P55084); assay: as above
HADHB (human), sequence (P55084 34-474 limits assumed): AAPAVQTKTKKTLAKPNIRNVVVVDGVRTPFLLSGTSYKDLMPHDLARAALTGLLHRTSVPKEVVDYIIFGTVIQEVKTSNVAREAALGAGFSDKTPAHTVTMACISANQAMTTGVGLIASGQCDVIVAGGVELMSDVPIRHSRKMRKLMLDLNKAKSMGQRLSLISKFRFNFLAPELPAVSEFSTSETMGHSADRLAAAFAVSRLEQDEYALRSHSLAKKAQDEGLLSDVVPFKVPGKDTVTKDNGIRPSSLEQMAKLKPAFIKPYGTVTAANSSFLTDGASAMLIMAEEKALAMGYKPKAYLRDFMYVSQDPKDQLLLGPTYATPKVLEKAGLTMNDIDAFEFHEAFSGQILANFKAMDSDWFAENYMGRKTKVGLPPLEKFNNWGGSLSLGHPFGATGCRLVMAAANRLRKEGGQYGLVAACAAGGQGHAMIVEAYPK

PARP1 (human) = PARP1 (human) (UniProt P09874); assay: as above
PARP1 (human), sequence (P09874 2-1014 limits assumed): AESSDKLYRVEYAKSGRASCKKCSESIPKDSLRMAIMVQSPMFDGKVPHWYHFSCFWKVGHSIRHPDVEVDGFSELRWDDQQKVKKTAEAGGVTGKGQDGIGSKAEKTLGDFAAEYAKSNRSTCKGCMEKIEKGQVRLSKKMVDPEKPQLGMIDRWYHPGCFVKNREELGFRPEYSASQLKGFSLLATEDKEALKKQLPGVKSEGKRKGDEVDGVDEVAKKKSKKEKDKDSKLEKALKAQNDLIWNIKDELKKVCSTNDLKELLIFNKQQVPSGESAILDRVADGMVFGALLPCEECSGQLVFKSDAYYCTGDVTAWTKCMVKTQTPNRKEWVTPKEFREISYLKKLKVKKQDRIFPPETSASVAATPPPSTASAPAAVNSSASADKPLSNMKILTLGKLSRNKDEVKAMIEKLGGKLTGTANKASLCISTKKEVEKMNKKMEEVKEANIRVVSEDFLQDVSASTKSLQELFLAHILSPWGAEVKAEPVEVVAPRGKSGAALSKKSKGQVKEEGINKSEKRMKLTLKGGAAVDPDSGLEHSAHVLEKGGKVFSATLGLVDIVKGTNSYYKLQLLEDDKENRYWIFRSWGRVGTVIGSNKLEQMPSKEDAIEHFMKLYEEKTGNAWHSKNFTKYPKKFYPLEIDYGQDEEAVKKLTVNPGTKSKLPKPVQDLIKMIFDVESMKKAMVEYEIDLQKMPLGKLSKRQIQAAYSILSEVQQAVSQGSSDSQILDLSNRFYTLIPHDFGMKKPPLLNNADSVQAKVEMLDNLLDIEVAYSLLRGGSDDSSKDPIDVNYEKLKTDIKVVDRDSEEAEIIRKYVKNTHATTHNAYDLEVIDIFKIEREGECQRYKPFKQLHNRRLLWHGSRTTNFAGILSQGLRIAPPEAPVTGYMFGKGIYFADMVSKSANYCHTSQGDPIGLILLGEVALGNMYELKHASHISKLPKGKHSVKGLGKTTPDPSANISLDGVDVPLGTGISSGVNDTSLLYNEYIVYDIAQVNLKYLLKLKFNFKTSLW

MOV10 (human) = molecular target: T1, MOV10 (human) (UniProt Q9HCE1); assay: as above
T1 sequence (looked up): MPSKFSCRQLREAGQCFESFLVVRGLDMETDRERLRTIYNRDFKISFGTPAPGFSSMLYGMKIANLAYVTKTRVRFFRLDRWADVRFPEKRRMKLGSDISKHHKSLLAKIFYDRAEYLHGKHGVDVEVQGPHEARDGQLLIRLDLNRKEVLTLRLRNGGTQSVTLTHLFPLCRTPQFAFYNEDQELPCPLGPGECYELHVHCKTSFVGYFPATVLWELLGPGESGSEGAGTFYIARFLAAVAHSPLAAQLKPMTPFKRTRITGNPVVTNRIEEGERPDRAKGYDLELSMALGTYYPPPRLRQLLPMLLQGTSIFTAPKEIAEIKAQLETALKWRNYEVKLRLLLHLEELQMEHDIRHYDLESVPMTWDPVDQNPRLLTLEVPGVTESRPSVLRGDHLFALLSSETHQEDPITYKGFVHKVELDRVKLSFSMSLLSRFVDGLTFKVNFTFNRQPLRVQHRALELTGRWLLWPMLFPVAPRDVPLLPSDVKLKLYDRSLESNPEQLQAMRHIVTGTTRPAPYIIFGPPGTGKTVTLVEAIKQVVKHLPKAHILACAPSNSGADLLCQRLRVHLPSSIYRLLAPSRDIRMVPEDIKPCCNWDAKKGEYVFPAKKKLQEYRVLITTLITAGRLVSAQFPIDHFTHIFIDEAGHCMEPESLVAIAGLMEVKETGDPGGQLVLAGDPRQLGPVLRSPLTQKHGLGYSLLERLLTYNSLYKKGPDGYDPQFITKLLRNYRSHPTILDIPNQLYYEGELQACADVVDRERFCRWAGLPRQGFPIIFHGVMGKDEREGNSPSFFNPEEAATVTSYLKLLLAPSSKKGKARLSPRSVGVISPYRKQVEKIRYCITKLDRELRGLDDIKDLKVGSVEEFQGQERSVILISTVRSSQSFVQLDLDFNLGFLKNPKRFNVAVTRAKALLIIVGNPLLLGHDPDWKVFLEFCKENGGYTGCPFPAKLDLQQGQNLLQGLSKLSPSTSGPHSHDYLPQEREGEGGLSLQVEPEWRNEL

LSM12 (human) = LSM12 (human) (UniProt Q3MHD2); assay: as above
LSM12 (human), sequence (Q3MHD2 2-195 limits assumed): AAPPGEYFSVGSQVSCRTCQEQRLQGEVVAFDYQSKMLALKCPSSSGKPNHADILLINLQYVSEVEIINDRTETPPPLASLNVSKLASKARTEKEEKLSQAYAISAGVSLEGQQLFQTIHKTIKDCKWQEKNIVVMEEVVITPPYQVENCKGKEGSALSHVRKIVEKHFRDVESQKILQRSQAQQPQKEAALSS

DNAJC3 (human) = DNAJC3 (human) (UniProt Q13217); assay: as above
DNAJC3 (human), sequence (Q13217 32-504 limits assumed): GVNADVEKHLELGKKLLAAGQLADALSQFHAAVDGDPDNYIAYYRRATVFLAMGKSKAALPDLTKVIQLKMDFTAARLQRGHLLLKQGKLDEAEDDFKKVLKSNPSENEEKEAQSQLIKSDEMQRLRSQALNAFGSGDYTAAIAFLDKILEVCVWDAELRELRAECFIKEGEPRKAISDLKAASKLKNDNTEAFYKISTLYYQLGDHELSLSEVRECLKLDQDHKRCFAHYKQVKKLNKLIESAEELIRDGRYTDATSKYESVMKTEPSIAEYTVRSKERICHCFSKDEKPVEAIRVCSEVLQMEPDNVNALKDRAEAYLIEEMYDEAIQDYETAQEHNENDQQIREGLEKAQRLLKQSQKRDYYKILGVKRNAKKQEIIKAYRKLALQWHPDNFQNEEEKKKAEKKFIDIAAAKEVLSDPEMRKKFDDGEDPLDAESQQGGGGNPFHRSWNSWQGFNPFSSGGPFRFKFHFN

RPL18 (human) = RPL18 (human) (UniProt Q07020); assay: as above
RPL13 (human) = RPL13 (human) (UniProt P26373); assay: as above
HSPA8 (human) = HSPA8 (human) (UniProt P11142); assay: as above
HSPA8 (human), sequence (P11142 2-646 limits assumed): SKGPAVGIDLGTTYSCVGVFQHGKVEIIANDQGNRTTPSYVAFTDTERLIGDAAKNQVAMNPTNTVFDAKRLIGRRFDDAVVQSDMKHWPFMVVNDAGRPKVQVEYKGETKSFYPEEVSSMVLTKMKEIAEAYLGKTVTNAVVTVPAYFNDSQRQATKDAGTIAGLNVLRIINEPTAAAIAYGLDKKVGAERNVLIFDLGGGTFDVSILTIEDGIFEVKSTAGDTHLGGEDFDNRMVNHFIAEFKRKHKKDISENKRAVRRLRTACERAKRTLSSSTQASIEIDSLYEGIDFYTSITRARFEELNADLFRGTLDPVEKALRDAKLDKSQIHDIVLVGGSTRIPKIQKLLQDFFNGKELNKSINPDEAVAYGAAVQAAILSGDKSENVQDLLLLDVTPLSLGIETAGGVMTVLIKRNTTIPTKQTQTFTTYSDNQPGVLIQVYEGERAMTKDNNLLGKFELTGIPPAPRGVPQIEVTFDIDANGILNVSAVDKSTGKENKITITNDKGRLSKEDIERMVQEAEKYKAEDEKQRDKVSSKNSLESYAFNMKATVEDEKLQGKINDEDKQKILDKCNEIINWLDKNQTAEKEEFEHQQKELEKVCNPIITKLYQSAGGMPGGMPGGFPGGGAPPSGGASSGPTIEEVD

Substance: IgG control (Millipore Sigma 12-371) (antibody)
- co-IP mass spectrometry count (RPS17): 3
- co-IP mass spectrometry count (AHNAK): 0
- co-IP mass spectrometry count (RPS15A): 2
- co-IP mass spectrometry count (RPL11): 3
- co-IP mass spectrometry count (UBA52): 5
- co-IP mass spectrometry count (HNRNPA1): 4
- co-IP mass spectrometry count (RPS11): 8
- co-IP mass spectrometry count (LYZ): 4
- co-IP mass spectrometry count (ATXN2L): 3
- co-IP mass spectrometry count (TPI1): 2
- co-IP mass spectrometry count (YWHAZ): 0
- co-IP mass spectrometry count (FABP5): 2
- co-IP mass spectrometry count (ACTR3): 3
- co-IP mass spectrometry count (SPRR2E): 3

Substance: C-terminal FLAG tagged B3GNT2 (from UniProt Q9NY97 1-397) (enzyme)
- co-IP mass spectrometry count (RPS28 (human)): 3
- co-IP mass spectrometry count (HADHB (human)): 3
- co-IP mass spectrometry count (PARP1 (human)): 3
- co-IP mass spectrometry count (MOV10 (human)): 3
- co-IP mass spectrometry count (LSM12 (human)): 4
- co-IP mass spectrometry count (DNAJC3 (human)): 3
- co-IP mass spectrometry count (RPL18 (human)): 24
- co-IP mass spectrometry count (RPL13 (human)): 23
- co-IP mass spectrometry count (HSPA8 (human)): 49
